Experimental data reported in patent publication US20240076386A1 (Pfizer, published 2024).

T1: human E-selectin extracellular domain with 10 His purification tail (human, UniProt P16581 22-556)
T1 construct: also called soluable human E-selectin extracellular domain; rhE-Selectin
T1 sequence: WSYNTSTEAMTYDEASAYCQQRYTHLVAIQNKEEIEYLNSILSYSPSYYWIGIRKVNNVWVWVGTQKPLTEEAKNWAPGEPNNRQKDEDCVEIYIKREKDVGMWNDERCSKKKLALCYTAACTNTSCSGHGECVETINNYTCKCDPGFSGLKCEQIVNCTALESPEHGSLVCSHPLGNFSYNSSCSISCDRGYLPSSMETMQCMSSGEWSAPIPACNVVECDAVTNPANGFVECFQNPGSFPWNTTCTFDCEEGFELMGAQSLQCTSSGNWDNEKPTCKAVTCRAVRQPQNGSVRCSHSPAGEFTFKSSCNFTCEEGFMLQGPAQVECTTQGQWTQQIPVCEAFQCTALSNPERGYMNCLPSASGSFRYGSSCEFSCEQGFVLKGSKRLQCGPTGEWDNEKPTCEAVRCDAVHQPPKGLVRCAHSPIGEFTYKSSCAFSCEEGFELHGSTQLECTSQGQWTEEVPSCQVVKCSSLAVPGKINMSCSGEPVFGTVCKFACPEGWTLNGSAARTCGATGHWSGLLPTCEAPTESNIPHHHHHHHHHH

T2: human E-selectin, cell-surface expressed (human, UniProt P16581 22-610)
T2 construct: also called CHO-human E-selectin cells; human CHO-E
T2 sequence: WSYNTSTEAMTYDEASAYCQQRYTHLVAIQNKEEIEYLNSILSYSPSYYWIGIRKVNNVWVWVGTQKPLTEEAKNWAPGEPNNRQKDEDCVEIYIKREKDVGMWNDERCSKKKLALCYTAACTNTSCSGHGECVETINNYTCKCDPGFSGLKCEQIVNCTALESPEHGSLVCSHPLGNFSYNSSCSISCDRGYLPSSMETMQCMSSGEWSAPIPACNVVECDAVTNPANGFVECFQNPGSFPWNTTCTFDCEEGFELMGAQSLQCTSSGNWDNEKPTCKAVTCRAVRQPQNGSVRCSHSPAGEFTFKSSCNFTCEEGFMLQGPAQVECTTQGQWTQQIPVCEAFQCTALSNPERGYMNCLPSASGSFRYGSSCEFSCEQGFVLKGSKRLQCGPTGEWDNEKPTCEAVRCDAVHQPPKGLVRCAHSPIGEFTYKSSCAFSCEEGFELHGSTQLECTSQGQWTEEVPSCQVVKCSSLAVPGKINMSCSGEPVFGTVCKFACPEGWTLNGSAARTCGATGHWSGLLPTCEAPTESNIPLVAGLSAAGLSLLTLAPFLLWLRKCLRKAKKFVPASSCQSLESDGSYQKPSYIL

B1: anti-E-selectin antibody 0039 chimera (antibody, human IgG1, kappa, V domains shown)
VH: QVQLKETGPGLVQPTQTLSITCTVSGFSLTGYYMQWVRQTPGKGLEWMGFIRSSGSTEYNSEFKSRLSISRDTSKNQVFLKMNSLKTEDTGVYYCARCPYKYSSFVYVGVMDAWGQGAPVTVSS
VL: EIVMTQSPTSMSTSIGERVTLNCKASQTVGINVDWYQQTPGQPPKLLIYGASNRHTGVPDRFTGSGFGRDFTLTISNVEAEDLAVYCCLQYGSIPHTFGPGTKLELKR
notes: rat VH/VL on effector-null human IgG1 and human kappa
B2: anti-E-selectin antibody 0158 chimera (antibody, human IgG1, kappa, V domains shown)
VH: QVQLKESGPGLVQPSETLSLTCTVSGFSISTYNVHWLRQPPGKGLEWMGMMWSGGSPDYNSALKSRLSISRDTSKNQVFLKMNSLQSEDTTTYYCARWGGGFDYWGQGVMVTVSS
VL: DIVLTQSPTTLSVTPGETVSLSCRASHSIGTNLHWYQQKTNESPRLLIKFTSQSISGIPSRFSASGSGTDFTLNINNVEFDDVSSYFCQQTQSWPLTFGSGTKLEIKR
notes: as for B1
B3: anti-E-selectin antibody 0159 chimera (antibody, human IgG1, kappa, V domains shown)
VH: EVQLQQSGAELGKPGTSVKLSCKVSGYNIRSTYMHWVSQRPGKGLEWIGRIDPANGNTIYAEKFKRKATLTADTSSNTAYMQLSQLKSDDRAIYFCAMEVRVSFEYWGQGVMVTVSS
VL: DIQMTQSPSFLSASVGDRVTINCKASQNINKYLDWYQQKLGEGPKLLIYYTNNLHTGIPSRFSGSGSGTDFTLTISSLQPEDVATYFCLQHDSGYTFGAGTKLELKR
notes: as for B1
B4: anti-E-selectin antibody 0170 chimera (antibody, human IgG1, kappa, V domains shown)
VH: EVQLQQSGAELGKPGTSVKLSCKVSGYSIRSTYMHWVNQRPGKGLEWVGRIDPANGNTIYAERFKNKATLTADTSSNTAYMQLSQLKSDDTAIYFCAVEILGIFDYWGQGVMVTVSS
VL: DIQMTQSPSFLSASVGDRVTINCKASQNIDKYLDWYQQKLGEAPKLLMYNTNSLHTGIPSRFSGSGSGTDFTLTISSLQPEDVATYFCLQHNSGYTFGAGTKLELKR
notes: as for B1
B5: anti-E-selectin antibody 0180 chimera (antibody, human IgG1, kappa, V domains shown)
VH: EVQLQQSGAELGKPGTSVKLSCKVSGYKIRSSYMHWVNQRPGKGLEWIGRIDPANGNTIYGDKFKSKATLTSDTSSNTAYIQLSQLKSDDTAIYFCAIDIGTTFDYWGQGVMVTVSS
VL: DIQMTQSPSFLSASVGDRVTINCKASQHINRYLNWYQQKLGEAPKLLIYDANNLQTGIPSRFSGSGSGTDFTLTISSLQPEDVATYFCLQHNSWPNTFGAGTKLELKR
notes: as for B1
B6: anti-E-selectin antibody 0164 chimera (antibody, human IgG1, kappa, V domains shown)
VH: EVQLQQSGAEFGKPGTSVKLSCKVSGYNIRSSYMHWVNQRPGKGLEWIGRIDPANGNTIYAEKFKIKAILTADSSSNTAYMQLSQLKSDDTAIYFCAMDLYSTSEYWGQGVMVTVSS
VL: DIQMTQSPSFLSASVGDRVTINCKTSQNINRYLNWYQQKLGEAPKLLIYNANSLQTGIPSRFSASGSGTDFTLTINSLQPEDVATYFCLQDNSWPLTFGSGTKLEIKR
notes: as for B1
B7: humanized anti-E-selectin antibody 0841 (antibody, human IgG1, kappa, V domains shown)
VH: EVQLVESGGGLVQPGGSLRLSCAASGYNIRSSYMHWVRQAPGKGLEWVARIDPANGNTIYAEKFKIRFTISADNAKNSAYLQMNSLRAEDTAVYYCAMDLYSTSEYWGQGTLVTVSS
VL: DIQMTQSPSSLSASVGDRVTITCKTSQNINRYLNWYQQKPGKAPKLLIYNANSLQTGVPSRFSGSGSGTDFTLTISSLQPEDFATYFCLQDNSWPLTFGQGTKVEIKR
notes: effector-null human IgG1, kappa
B8: optimized anti-E-selectin antibody 1282 (antibody, human IgG1, kappa, V domains shown)
VH: EVQLVESGGGLVQPGGSLRLSCAASGYAIRSAYMHWVRQAPGKGLEWVARIDPANGNTIYVDSVEGRFTISADNAKNSAYLQMNSLRAEDTAVYYCAMDLYSTSEYWGQGTLVTVSS
VL: DIQMTQSPSSLSASVGDRVTITCKTSQNIERYLNWYQQKPGKAPKLLIYAASSLQSGVPSRFSGSGSGTDFTLTISSLQPEDFATYFCLQDNAWPLTFGQGTKVEIKR
notes: as for B7
B9: optimized anti-E-selectin antibody 1448 (antibody, human IgG1, kappa, V domains shown)
VH: EVQLVESGGGLVQPGGSLRLSCAASGYAIRSAYMHWVRQAPGKGLEWVARIDPANGNTIYVDSVKERFTISADNAKNSAYLQMNSLRAEDTAVYYCAMDLYSTSEYWGQGTLVTVSS
VL: DIQMTQSPSSLSASVGDRVTITCKTSQNIERYLNWYQQKPGKAPKLLIYAASSLQSGVPSRFSGSGSGTDFTLTISSLQPEDFATYFCLQDNAWPLTFGQGTKVEIKR
notes: as for B7
B10: optimized anti-E-selectin antibody 1284 (antibody, human IgG1, kappa, V domains shown)
VH: EVQLVESGGGLVQPGGSLRLSCAASGYAIRSAYMHWVRQAPGKGLEWVARIDPANGNTIYVESVEGRFTISADNAKNSAYLQMNSLRAEDTAVYYCAMDLYSTSEYWGQGTLVTVSS
VL: DIQMTQSPSSLSASVGDRVTITCKTSQNIERYLNWYQQKPGKAPKLLIYAASSLQSGVPSRFSGSGSGTDFTLTISSLQPEDFATYFCLQDNAWPLTFGQGTKVEIKR
notes: as for B7
B11: optimized anti-E-selectin antibody 1444 (antibody, human IgG1, kappa, V domains shown)
VH: EVQLVESGGGLVQPGGSLRLSCAASGYAIRSAYMHWVRQAPGKGLEWVARIDPANGNTIYVDSVTGRFTISADNAKNSAYLQMNSLRAEDTAVYYCAMDLYSTSEYWGQGTLVTVSS
VL: DIQMTQSPSSLSASVGDRVTITCKTSQNIERYLNWYQQKPGKAPKLLIYAASSLQSGVPSRFSGSGSGTDFTLTISSLQPEDFATYFCLQDNAWPLTFGQGTKVEIKR
notes: as for B7

Legend:
[1] = biological target: T1, human E-selectin extracellular domain …; assay: antigen binding ELISA, HRP detection
Description: 384-well Maxisorp plates were used to capture the human and mouse His-tagged recombinant E-selectin polypeptides. The polypeptides were incubated with chimeric antibodies of varying concentrations and detected with HRP-labeled anti-human IgG1 antibodies.

[2] = biological target: T1, human E-selectin extracellular domain …; assay: SPR, antibody captured, E-selectin analyte
Description: To characterize binding of antibodies to human, cynomolgus monkey, and mouse E-selectin, an antibody was diluted to 0.5 μg/mL in HBS-EP+ and captured by the anti-human IgG immobilized on flow cells 2, 3 and 4 for 30 seconds to 1 minute at a flow rate of 10 μL/minute to achieve a capture level of 70 to 300 RU. Flow cell 1 was used as a reference surface. […] HBS-EP+ buffer cycles collected for each captured antibody were used for double-referencing (Myszka D G. J. Mol. Recognition 1999; 12(5):279-84). At the end of each cycle, the entire anti-IgG surface was regenerated by a 30 second pulse of 3 M MgCl₂ and a 30 second pulse of ionic buffer (1.83 M MgCl₂, 0.92 M Urea, 1.83 M Guanidine HCl, pH 7.4) (Andersson K. Analy. Chem. 1999; 71(13): 2475-81). Kinetic assays were conducted at 25° C. at a collection rate of 10 Hertz (Hz) on a BIAcore™ T200 instrument (GE Healthcare). Rate constants and affinities were determined by fitting the data to a 1:1 binding model in BIAcore™ T200 Evaluation software version 3.0 (GE Healthcare).

[3] = biological target: T2, human E-selectin, cell-surface expressed; assay: competition ELISA on CHO cells vs sialyl Lewis ligand-PAA-biotin/SA-HRP
Description: In a static ligand cellular adhesion assay, horse radish peroxidase (HRP) conjugated E-selectin ligand (sialyl Lewis antigen) and E-selectin antibodies compete for binding to human or cynomolgus E-selectin expressed on Chinese hamster ovary (CHO) cells. The ability of anti-E-selectin antibodies to neutralize ligand binding was assessed in a static neutralization assay using a competition enzyme-linked immunosorbent assay (ELISA) to evaluate the neutralization of the sialyl Lewis antigen to Chinese hamster ovary cells (CHO) engineered to express human or cynomolgus monkey E-selectin.
CHO cells expressing E-selectin were seeded at 12,500 cells per well into a 96 well tissue culture plate and incubated at 37° C., 5% CO₂ for 48 hours to form a confluent monolayer. Plates were subsequently washed twice with 200 μL of calcium magnesium free PBS. Anti-E-selectin antibodies or an IgG1 isotype control (IgG control) were added to the assay in the presence of a small synthetic conjugate of biotinylated, sialyl Lewis A polyacrylamide (Carbosynth LLC, OS45446) or sialyl Lewis X polyacrylamide (Glycotech, 01-045) with streptavidin/horseradish peroxidase (100 μL total) and incubated at 37° C., 5% CO₂ for 2 hours. Plates were then washed twice with 200 μL of calcium and magnesium free PBS. Following the incubation, the cells were washed twice with 200 μL of wash buffer containing 2 mM of calcium chloride (50 mM TRIS [trisaminomethane], 150 mM sodium chloride; 0.05% polysorbate 20, pH 7.4; 2 mM calcium chloride). Signal was developed by adding 100 μL of 1-Step Ultra TMB substrate (Thermo Scientific, 34028) and incubating for 30 minutes at room temperature. Reactions were stopped using 2 M of sulfuric acid and absorbance was read at 450 nm (Spectramax M5e). Data were analyzed and graphed using GraphPad Prism software (Version 8.0.2).

Binder	EC50 [1]	Kd [2]	koff [2]	kon [2]	t½ [2]	IC50 [3]
B1	0.02 nM	68 nM	0.00421 s⁻¹	64200 M⁻¹ s⁻¹	174 s	
B2	0.03 nM	21.6 nM	0.00175 s⁻¹	81000 M⁻¹ s⁻¹	397 s	
B3	0.02 nM	324 nM	0.0371 s⁻¹	115000 M⁻¹ s⁻¹	18.7 s	
B4	0.01 nM	628 nM	0.0549 s⁻¹	87400 M⁻¹ s⁻¹	12.6 s	
B5	0.01 nM	2940 nM	0.666 s⁻¹	262000 M⁻¹ s⁻¹	1.05 s	
B6	0.02 nM	54.4 nM	0.0113 s⁻¹	207000 M⁻¹ s⁻¹	61.6 s	2.69 nM
B7						2.56 nM
B8						1.38 nM
B9						2.78 nM
B10						2.77 nM
B11						2.89 nM
